Among the data in patent publication US20100160617 are Kd values, retold here.

The target of data set [1] is HCV NS5B RNA-dependent RNA polymerase (Hepatitis C virus) (UniProt P26663). Description: EMSA. As to conditions: 2'-F on all C and U; apparent Kd; 4% nondenaturing gel. (In EMSA bound probe runs differently from free probe, usually more slowly.)
Data set [2] shares this target. Description: SPR. The note with it: 2'-F on all C and U.

Sequence of HCV NS5B RNA-dependent RNA polymerase (Hepatitis C virus) (P26663 2420-3010): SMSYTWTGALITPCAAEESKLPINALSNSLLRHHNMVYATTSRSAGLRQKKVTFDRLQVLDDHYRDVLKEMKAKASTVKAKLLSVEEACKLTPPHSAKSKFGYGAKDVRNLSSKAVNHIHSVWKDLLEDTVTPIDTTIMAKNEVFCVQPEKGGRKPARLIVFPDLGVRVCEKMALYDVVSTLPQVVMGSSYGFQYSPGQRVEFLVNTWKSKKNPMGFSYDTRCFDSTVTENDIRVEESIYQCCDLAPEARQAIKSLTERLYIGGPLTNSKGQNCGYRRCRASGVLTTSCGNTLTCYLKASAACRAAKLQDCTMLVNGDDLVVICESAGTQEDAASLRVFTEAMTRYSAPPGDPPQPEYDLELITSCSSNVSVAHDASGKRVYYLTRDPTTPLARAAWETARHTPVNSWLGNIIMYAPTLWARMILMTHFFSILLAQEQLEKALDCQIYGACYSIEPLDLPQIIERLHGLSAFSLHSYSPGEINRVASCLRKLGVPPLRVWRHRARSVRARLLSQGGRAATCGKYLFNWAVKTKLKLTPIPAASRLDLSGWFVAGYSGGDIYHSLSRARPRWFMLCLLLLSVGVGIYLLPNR

Consider “GGGAGAGCGGAAGCGUGCUGGGCCGACAGGGUAGCUUACAGCUGCAUGAUCGCUAGAGGGCGAACAUAACCCAGAGGUCGAUGGAUCCCCCC [RNA aptamer #24]”, for which the Kd in data set [1] was determined as 5 nM.

As for “GGGAGAGCGGAAGCGUGCUGGGCCUUGAACGAUUGGUAGUAGAAUAUCGUCAGUGAACGGCAGUCAUAACCCAGAGGUCGAUGGAUCCU [RNA aptamer #9]”, in data set [1], the Kd turned out to be 18 nM.

As to “AACGAUUGGUAGUAGAAUAUCGU [RNA aptamer #9-t3]”, the Kd in data set [2] (5' end of the transcript may carry extra G from T7 primer) came to 40.4 nM. “GUUGAACGAUUGGUAGUAGAAUAUCGUCAG [RNA aptamer #9-t2]” registered a Kd in data set [2] (listing SEQ 4 lacks the 5' G printed in text) of 2.6 nM. As for “GCUGGGCCUUGAACGAUUGGUAGUAGAAUAUCGUCAGUGAACGGC [RNA aptamer #9-t1]”, the Kd in data set [2] was determined as 8.4 nM.
